# Laboratory results from PMC4118853, “Phage Orf Family Recombinases: Conservation of Activities and Involvement of the Central Channel in DNA Binding” (PLoS ONE, 2014).
# Numbering of substitutions follows the chain as printed.
# T1: MBP-YbcN (Escherichia coli cryptic prophage DLP12 …, UniProt Q47269 1-151)
# T1 sequence: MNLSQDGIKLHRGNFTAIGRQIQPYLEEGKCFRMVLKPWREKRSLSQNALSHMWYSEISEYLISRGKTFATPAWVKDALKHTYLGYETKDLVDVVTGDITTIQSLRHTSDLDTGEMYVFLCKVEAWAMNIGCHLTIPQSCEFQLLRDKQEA
# T2: MBP-Orf (Bacteriophage lambda, UniProt P03765 1-146)
# T2 sequence: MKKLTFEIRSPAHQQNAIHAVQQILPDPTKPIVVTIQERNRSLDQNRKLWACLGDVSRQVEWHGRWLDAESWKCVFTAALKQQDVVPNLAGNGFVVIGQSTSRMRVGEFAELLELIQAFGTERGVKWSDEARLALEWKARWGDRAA
# T3: MBP-Orf R103E (Bacteriophage lambda, UniProt P03765 1-146, R103E)
# T3 sequence: T2 sequence with R103E
# B1: DS60 (dsDNA)
# DNA 1: TTTGGTCTAACTTTACCGCTACTAAATGCCGCGGATTGGTTTCGCTGAATCAGGTTATTA
# DNA 2: TAATAACCTGATTCAGCGAAACCAATCCGCGGCATTTAGTAGCGGTAAAGTTAGACCAAA
# B2: MMT:G-fluorescein (dsDNA)
# DNA 1: B1 DNA 1
# DNA 2: B1 DNA 2 with C28T
# B3: MMG:G (dsDNA)
# DNA 1: B1 DNA 1
# DNA 2: B1 DNA 2 with C28G
# Experiments:
# MBP-YbcN [1] = target: T1, MBP-YbcN; experiment: EMSA; 5 mM EDTA; three complexes; EMSA: 50 mM Tris-HCl pH 8.0, 5 mM EDTA (or 1 mM MgCl2), 1 mM DTT, 5% glycerol, 100 ug/ml BSA, on ice 15 min, 4% PAGE; anisotropy: 100 mM Tris-HCl pH 7.0, 10 nM; conditions: protein: recombinant; tags: N-terminal MBP; chain copies: 2; label: 5'-32P on strand 1; blunt
# MBP-Orf [2] = target: T2, MBP-Orf; experiment: fluorescence anisotropy; some preference over duplex control; data varied; EMSA: 50 mM Tris-HCl pH 8.0, 5 mM EDTA (or 1 mM MgCl2), 1 mM DTT, 5% glycerol, 100 ug/ml BSA, on ice 15 min, 4% PAGE; anisotropy: 100 mM Tris-HCl pH 7.0, 10 nM; conditions: protein: recombinant; tags: N-terminal MBP; chain copies: 2; label: 3'-fluorescein on strand 1; blunt, central single T:G mismatch
# MBP-YbcN [3] = target: T1, MBP-YbcN; experiment: EMSA; 5 mM EDTA; no preference over DS60; EMSA: 50 mM Tris-HCl pH 8.0, 5 mM EDTA (or 1 mM MgCl2), 1 mM DTT, 5% glycerol, 100 ug/ml BSA, on ice 15 min, 4% PAGE; anisotropy: 100 mM Tris-HCl pH 7.0, 10 nM; conditions: protein: recombinant; tags: N-terminal MBP; chain copies: 2; label: 5'-32P on strand 1; blunt, central single G:G mismatch
# MBP-YbcN [4] = target: T1, MBP-YbcN; experiment: EMSA; 5 mM EDTA; lower affinity than MBP-Orf; EMSA: 50 mM Tris-HCl pH 8.0, 5 mM EDTA (or 1 mM MgCl2), 1 mM DTT, 5% glycerol, 100 ug/ml BSA, on ice 15 min, 4% PAGE; anisotropy: 100 mM Tris-HCl pH 7.0, 10 nM; conditions: protein: recombinant; tags: N-terminal MBP; chain copies: 2; label: 5'-32P; single strand
# MBP-Orf [5] = target: T2, MBP-Orf; experiment: EMSA; 5 mM EDTA; EMSA: 50 mM Tris-HCl pH 8.0, 5 mM EDTA (or 1 mM MgCl2), 1 mM DTT, 5% glycerol, 100 ug/ml BSA, on ice 15 min, 4% PAGE; anisotropy: 100 mM Tris-HCl pH 7.0, 10 nM; conditions: protein: recombinant; tags: N-terminal MBP; chain copies: 2; label: 5'-32P; single strand
# MBP-Orf R103E = target: T3, MBP-Orf R103E; experiment: EMSA; 5 mM EDTA; up to 500 nM; EMSA: 50 mM Tris-HCl pH 8.0, 5 mM EDTA (or 1 mM MgCl2), 1 mM DTT, 5% glycerol, 100 ug/ml BSA, on ice 15 min, 4% PAGE; anisotropy: 100 mM Tris-HCl pH 7.0, 10 nM; conditions: protein: recombinant; tags: N-terminal MBP; chain copies: 2; label: 5'-32P; single strand
binder,measurement,setting,value
B1,binding result,MBP-YbcN [1],binds
B2,binding result,MBP-Orf [2],binds
B3,binding result,MBP-YbcN [3],binds
GGCGACGTGATCACCAGATGATTGCTAGGCATGCTTTCCGCAAGAGAAGC (ssDNA) [SS50],binding result,MBP-YbcN [4],binds
same,binding result,MBP-Orf [5],binds
same,binding result,MBP-Orf R103E,no binding
